These results are taken from patent US20260265368A1 (CARSGEN LIFE SCIENCES, published 2026).

Changes are numbered by the printed parent chain.

For orientation: EC50 means the concentration giving half of the maximal effect.

In assay [1] the target is T1, Human CLDN6 (on 293T-CLDN6 cells) (human, UniProt P56747 1-220).
T1 construct: In the killing assay it was also endogenous on OVCAR3 and OV90 cells; also called Claudin 6
T1 sequence: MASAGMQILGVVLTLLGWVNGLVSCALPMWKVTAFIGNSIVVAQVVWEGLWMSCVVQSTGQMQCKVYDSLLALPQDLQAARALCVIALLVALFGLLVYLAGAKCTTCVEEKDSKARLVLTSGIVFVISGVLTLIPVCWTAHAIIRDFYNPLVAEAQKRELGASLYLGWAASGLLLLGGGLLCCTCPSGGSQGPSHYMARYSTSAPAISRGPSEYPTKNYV
The assay is described as follows: flow cytometry on 293T-CLDN6 cells. Background: A flow cytometer gives signals particle by particle.

Assay [2] deals with T2, Human CLDN9 (on 293T-CLDN9 cells) (human, UniProt O95484 1-217).
T2 construct: also called Claudin 9
T2 sequence: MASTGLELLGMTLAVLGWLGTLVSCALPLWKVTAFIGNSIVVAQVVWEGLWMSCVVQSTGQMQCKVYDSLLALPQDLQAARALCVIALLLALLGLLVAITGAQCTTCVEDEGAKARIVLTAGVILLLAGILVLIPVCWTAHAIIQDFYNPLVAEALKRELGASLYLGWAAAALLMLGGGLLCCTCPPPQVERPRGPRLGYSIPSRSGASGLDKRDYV
The assay is described as follows: flow cytometry on 293T-CLDN9 cells. As to the method: (§1) After centrifugation, the supernatant was discarded, and the cells were washed with PBS and incubated with Goat-anti-Mouse FITC at 4° C. After centrifugation, the supernatant was discarded, and the cells were washed and detected by flow cytometry. FlowJo v.X.0.7 was used for statistics and GraphPad Prism 8.0 was used for plotting.

Assay [3] concerns the target T3, Human CLDN4 (on 293T-CLDN4 cells) (human, UniProt O14493 1-209).
T3 construct: also called Claudin 4
T3 sequence: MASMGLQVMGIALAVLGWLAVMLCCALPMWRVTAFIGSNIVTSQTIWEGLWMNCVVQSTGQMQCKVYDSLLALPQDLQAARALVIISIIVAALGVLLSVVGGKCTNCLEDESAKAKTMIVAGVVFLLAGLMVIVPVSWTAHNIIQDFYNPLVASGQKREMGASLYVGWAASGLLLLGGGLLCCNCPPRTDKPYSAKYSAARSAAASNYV
The assay is described as follows: flow cytometry on 293T-CLDN4 cells. As to the method: as §1

Assay [4] addresses T1, Human CLDN6 (on 293T-CLDN6 cells). Description: flow cytometry EC50 on 293T-CLDN6 cells, against antibody H1. As to the method: (§2) The heavy chain variable region of antibody P1 from Example 3 was combined with the light chain variable regions of antibodies P2 and P3 by using molecular cloning, respectively, so as to obtain antibodies M1 and M2. After being prokaryotically expressed and puried, purified single chain antibodies (scFv) were obtained. […] Data were analyzed using FlowJo to calculate mean fluorescence intensity (MFI).

Assay [5] addresses T3, Human CLDN4 (on 293T-CLDN4 cells). The assay is described as follows: flow cytometry (MFI) on 293T-CLDN4 cells. Here is the method:
as §2

Assay [6] addresses T2, Human CLDN9 (on 293T-CLDN9 cells). Description: flow cytometry (MFI) on 293T-CLDN9 cells. Here is the method: as §2

B1: Antibody P2 (scFv) (scFv)
scFv: EVQLVQSGAEVKKPGASVKVSCKASGYTFTGYYMNWVRQAPGQGLEWMGEINPATGSTTYNQKFKARVTITRDTSTSTAYMELSSLRSEDTAVYYCARRDYYYGSGFYAMDYWGQGTLVTVSSGGGGSGGGGSGGGGSDIQMTQSPSSLSASVGDRVTITCQASQSVSNNLNWYQQKPGKAPKLLIYGASKLEDGVPSRFSGSGSGTDFTFTISSLQPEDFATYYCLQHRYMWTFGQGTKVEIK
notes: Prokaryotically expressed single chain antibody
As for B1, in assay [1], a half-maximal response (EC50) required 144 nM.

B2: Antibody P4 (scFv) (scFv)
scFv: B1 scFv with L227Q
notes: as for B1
Consider B2, for which a half-maximal response in assay [1] (EC50) required 183 nM. This EC50 and that of the molecule before are within 1.5-fold of each other.

B3: humanized antibody H1 (scFv-huFc) (Fc fusion)
scFv: B1 scFv with M232L
notes: Tested as scFv-huFc; not shown: human Fc (huFc)
The molecule B3 had an EC50 in assay [1] of 475 nM. Besides, the binding result in assay [2] and in assay [3] was “no binding (tested: 10 µg/mL)” each time.

B4: Antibody P3 (scFv) (scFv)
scFv: B1 scFv with L227Q, Y231F
notes: as for B1
Consider B4, for which the EC50 in assay [1] was found to be 555 nM.

B5: Antibody P1 (scFv) (scFv)
scFv: B1 scFv with Y103L, G106N, F107S, M110L, M232L
notes: as for B1
In turn, B5 came in with an EC50 in assay [1] of 62.7 nM.

B6: antibody M1 (scFv) (scFv, V domains shown)
VH: EVQLVQSGAEVKKPGASVKVSCKASGYTFTGYYMNWVRQAPGQGLEWMGEINPATGSTTYNQKFKARVTITRDTSTSTAYMELSSLRSEDTAVYYCARRDYYLGSNSYALDYWGQGTLVTVSS
VL: DIQMTQSPSSLSASVGDRVTITCQASQSVSNNLNWYQQKPGKAPKLLIYGASKLEDGVPSRFSGSGSGTDFTFTISSLQPEDFATYYCLQHRYMWTFGQGTKVEIK
notes: Tested as a prokaryotically expressed single chain antibody (scFv)
Regarding B6, in assay [1], the EC50 is 23 nM. Besides, in assay [4], the “fold improvement in affinity compared with antibody H1” value is roughly 20 fold. Also, the binding result in assay [5] and in assay [6] was “no binding (tested: 5 µg/mL)” each time.

B7: antibody M2 (scFv) (scFv, V domains shown)
VH: B6 VH
VL: B6 VL with L89Q, Y93F
notes: as for B6
With B7, the EC50 in assay [1] came to 24.7 nM. For the same molecule, in assay [4], the “fold improvement in affinity compared with antibody H1” value was roughly 20 fold. Also, the binding result in assay [5] and in assay [6] was “no binding (tested: 5 µg/mL)” in each case.
